Assay: soluble on expression in E. coli; label from the status in PepcDB or PDB records

Sequence | soluble on expression in E. coli
MNFRLSEEHEMLRKMVREFAENEVAPTAAERDEEERFDRGIFNKMAELGLTGIPWPEEYGGIGSDYLAYVIAVEELSRVCASTGVTLSAHISLASWPIYKFGNEEQKQKYLRALATGEKLGAYALSEPGAGSDVASMKTRAVKDGDHYILNGSKVWITNGGEAEIYVVFAVTDPEKRHKGISAFIVEKGTPGFSFGKKEKKLGIRSSPTTELIFEDCRIPKENLLGQEGEGFKIAMMTLDGGRNGIAAQAVGIAQGALDAAVDYAKQRVQFGKPIIEQQGVAFKLADMATAIEAARLLTYQAAWLESNGLPYGKASAMAKLFAGDTAMKVTVEAVQIFGGNGYTKDYPVERFMRDAKITQIYEGTQEIQRLVISRMLTRN | soluble
GPGSMPSLANGLRCPDALITRTLNPLLNGPKFAVIYCGNHQYKVAVGDVIAVQRLRVEIGSHIALKKVLMVGGPRFTAIGRPLLEGVRVTAQVEEQKRMRNVVSLFATPGRRHVRWVDAPHAATVIRICEIFYSPNVVGELDKYKGELLETFTPGQHTNPVYPVDDGYDVFRKKDKEAMENATTFLDLLGGV | not soluble
MSLEPKYQRILIKLSGEALAGEKGVGIDIPTVQAIAKEIAEVHVSGVQIALVIGGGNLWRGEPAADAGMDRVQADYTGMLGTVMNALVMADSLQHYGVDTRVQTAIPMQNVAEPYIRGRALRHLEKNRIVVFGAGIGSPYFSTDTTAALRAAEIEADAILMAKNGVDGVYNADPKKDANAVKFDELTHGEVIKRGLKIMDATASTLSMDNDIDLVVFNMNEAGNIQRVVFGEHIGTTVSNKVCDEGHHHHHH | soluble
MKTRKIPLRKSVVSNEVIDKRDLLRIVKNKEGQVFIDPTGKANGRGAYIKLDNAEALEAKKKKVFNRSFSMEVEESFYDELIAYVDHKVKRRELGLE | soluble
MDIRPARISDLTGMQNCNLHNLPENYQLKYYLYHAISWPMLSYVATDPKGRVVGYVLAKMEEEPKDGIPHGHITSVSVMRSYRHLGLAKRLMVQSQRAMVEVYGAKYMSLHVRKSNRAAIHLYRDTLQFDVQGIESKYYADGEDAYAMHKDFSTLKFDTPETNDELAKTVQSLALNN | soluble
KYRSVFDIIGPVMIGPSSSHTAGAARIGRVARSLFGREPERIIVSFYGSFAETYKGHGTDVAIIGGLLDFDTFDERIKTAIQIAEAKGIDIEFRVEDAVPVHPNTAKITISDEKGELELTGISIGGGKIEITELNGFELRLSGNHPAILVVHNDKFGTIAGVANVLAKFSINVGHMEVARKDIGQLALMTIEVDQNIDDHILDELSKLPN | not soluble
MDYLVKALAYDGKVRAYAARTTDMVNEGQRRHGTWPTASAALGRTMTASLMLGAMLKGDDKLTVKIEGGGPIGAIVADANAKGEVRAYVSNPQVHFDLNEQGKLDVRRAVGTNGTLSVVKDLGLREFFTGQVEIVSGELGDDFTYYLVSSEQVPSSVGVGVLVNPDNTILAAGGFIIQLMPGTDDETITKIEQRLSQVEPISKLIQKGLTPEEILEEVLGEKPEILETMPVRFHCPCSKERFETAILGLGKKEIQDMIEEDGQAEAVCHFCNEKYLFTKEELEGLRDQTTR | soluble
MSLYSNESAIQLISLARSIDQLQKIDSVVSFHDGAQLDALTIANALELPFSLSMGAIVNTRDKQLSRRILREKNLTEVQSAIAENEQDLHDFFKIYPQVNKVIVKPVAGTGSENVRSLESKELETANLDNVYPVLVEQFVEGREFSVEAFMQEGKCHIFAITEKFKDAQSFIETGHLVPARLSSDEHEKIAAFIAKVLPALGVVSGITHSEIMLGEKIELIETHTRVGGDRIFDLVQMTTGIDMYRLQALQSLGLPIGEDELTPKLNGKHACIKFKLNDHPGKKVIRVNGEEEIKNWSGVEDVSITHQAGEVLPQIVNSFDRSASVLVLCDSSEQALSIAEEAIQKLEFVVGEGHHHHHH | not soluble
MGSDKIHHHHHHMPRIKDGFKGERAIVLPAFLIEELKQDPLGSELYITDIGYYPHAYFHYRKRDTEEVTEFILIYCMEGEGWFELDKHQYAVTANQFFILPEHQAHAYGSNEENPWTIYWIHFNGTKAAFFSAGFDRPKSITPQEDSRIKERLVLFEEIYSSISFGYSKNYMLYATTSLFHFLGSMKFIGEYRDCGSMRNSYRNKDVVQIAIHFMQENLSKTIRLADIAAEVNLSVSYFSNLFEEKTGSSPLRYLTYLRIQEACHYLDFTNLKINQISPLVGYEDSLYFSRLFTKTMGVPPSAYKEKKKG | not soluble
HFNVLADTPSGLVPLHLRSPQVPAAQQMLNFPEKNKEKPVDLQNFGLRTDIYSKKTLAKSKGASAGREWTEQETLLLLEALEMYKDDWNKVSEHVGSRTQDECILHFLRLPIEDPYLENSDASLGPLAYQPVPFSQSGNPVMSTVAFLASVVDPRVASAAAKAALEEFSRVREEVPLELVEAHVKKVQEAARASGKVDPTYGLESSCIAGTGPDEPEKLEGAEEEKMEADPDGQQPEKAENKVENETDEGDKAQDGENEKNSEKEQDSEVSEDTKSEEKETEENKELTDTCKERESDTGKKKVEHEISEGNVATAAAAALASAATKAKHLAAVEERKIKSLVALLVETQMKKLEIKLRHFEELETIMDREKEALEQQRQQLLTERQNFHMEQLKYAELRARQQMEQQQHGQNPQQAHQHSGGPGLAPLGAAGHPGMMPHQQPPPYPLMHHQMPPPHPPQPGQIPGPGSMMPGQHMPGRMIPTVAANIHPSGSGPTPPGMPPMPGNILGPRVPLTAPNGMYPPPPQQQPPPPPPADGVPPPPAPGPPASAAP | soluble
MGSDKIHHHHHHMIKDTVFFAPGVSGGSNASSLSSRHRRAAIILHEIYGINAHIQRAGHEWMTRGFDIYIPALFPHHTPFRYEQQEEAYRHFSANVGFDPAVVTTLLHDLRTQYETLIVVGYSVGATLAWLSAASGLCDGVVCYYGSRIRQYLHLAPLCPTLVIVARYEPAFDPLAMRQALEKRPRVQCKMYDARHGFCDADSATFDAALSHQVMDDVTAFIRDITCANTSPDFQL | not soluble
MAHHHHHHMHECKDDRVLEKIQQINGYENIKLGDKKVLCDEIWTVTRCDKKFSYWIRYYEEDKNGYSLSVLPTQLKNIYYFLKYYYF | not soluble
VQLQQSGTELMKPGRSLKISCKTTGYIFSNYWIEWVKQRPGHGLEWIGKILPGGGSNTYNDKFKGKATFTADTSSNIAYMQLSSLTSEDSAVYYCARGEDYYAYWYVLDYWGQGTTVTVSSGGGGSDIELTQSPLSLPVSLGDQASISCRSSQSLVHSNGNTSLHWYLKKPGQSPKLLIYKVSTRFSGVPDRFSGSGSGTDFTLKISRVEAEDLGVYFCSQSTHVPFTFGSGTKLELK | soluble
PKWQAVRAEYQRQRDPLHQFASQQNPEAQLQALQDKIRANPQNSEQWALLGEYYLWQNDYSNSLLAYRQALQLRGENAELYAALATVLYYQASQHMTAQTRAMIDKALALDSNEITALMLLASDAFMQANYAQAIELWQKVMDLNSPRINRTQLVESINMAKLLQRRSDLEHHHHHH | soluble
MAHHHHHHMAKTVDNAALLAEIDQLRRLIAEKEALITPDGGSLSKKSKKKSQMNMVETEPVQGCRDFPPETMRLRKYLFDVFHSTARKFGFEEYDSPVLESEELYIRKAGEEITEQMFNFITKGGHRVALRPEMTPSLARQLLAKGRSLLLPAKWYSIPQCWRYEAITRGRRREHYQWNMDIIGVKSVSSEVELVCAACTAMQSLGLSSKDVGVKINSRKILQTVVEQAGVSADKFAPVCVIVDKMEKLPREEVVAQLAAIGLESNVVDAITSTLSLKTIDEIAQRIGEEHEAVRELRDFITQIEAYGFGDWVIFDASVVRGLAYYTGIVFEGFDRDGNFRALCGGGRYDNLLTTYGSPTAVPCVGFGFGDCVIVELLNEKKLLPELHHVVDDLVIPFDETMRPHALSILRRLRDAGRSADIVFDKKKVVQAFNYADRIGALRAVLVAPDEWARGEVRVKMLREGAGREEGANERGIVLPVDKIV | not soluble
APVNWGPGETNDSTTVEPVLDGPYQPTTFNPPVDYWMLLAPTAAGVVVEGTNNTDRWLATILVEPNVTSETRSYTLFGTQEQITIANASQTQWKFIDVVKTTQNGSYSQYGPLQSTPKLYAVMKHNGKIYTYNGETPNVTTKYYSTTNYDSVNMTAFCDFYIIPREEESTCTEYINNGLPPIQNTR | soluble
MVKQVFNFNAGPSALPKPALERAQKELLNFNDTQMSVMELSHRSQSYEEVHEQAQNLLRELLQIPNDYQILFLQGGASLQFTMLPMNLLTKGTIGNYVLTGSWSEKALKEAKLLGETHIAASTKANSYQSIPDFSEFQLNENDAYLHITSNNTIYGTQYQNFPEINHAPLIADMSSDILSRPLKVNQFGMIYAGAQKNLGPSGVTVVIVKKDLLNTKVEQVPTMLQYATHIKSDSLYNTPPTFSIYMLRNVLDWIKDLGGAEAIAKQNEEKAKIIYDTIDESNGFYVGHAEKGSRSLMNVTFNLRNEELNQQFLAKAKEQGFVGLNGHRSVGGCRASIYNAVPIDACIALRELMIQFKENA | soluble
MGRVYYGGVERTYLYRGRILNLALEGRYEIVEHKPAVAVIALREGRMLFVRQMRPAVGLAPLEIPAGLIEPGEDPLEAARRQLAEETGLSGDLTYLFSYFVSPGFTDEKTHVFLAENLKEVEAHPDEDEAIEVVWMRPEEALERHQRGEVEFSATGLVGVLYYHAFLRGR | soluble
SEEASTGTMVLLWAGGFQKVGGEQVSPLTGEVTRHRDRNIPYNLPVPSHPSNWVPLAAEVGPDSCDCGGPAPGLLLLLTRPHDPQFTVPSGWGRQLCPGHALLDEPLLPETGGHPVCERVGHPAPSGPPDLLGLAAGHVLCRVRHDTPVRIPGTGSGCVCTHPAVQWQADLLPHLTLWPNPGQGTVRTSVRNSGHTEEQQVGLS | soluble
MGSDKIHHHHHHMHYRQYGRTGRLISRFSLGLMRCLDSAAQLEAVLDAAWRLGINHFETAQSYGPSEAYLAQALHSLQLPRDQVIITTKILPDRDPQQMVEAVLRSRDRLGIDSIDCLALHGLNQPEHLQQAIAALPALQTLQAEGVFQHLGFSSHGDRELILEAIATDAFDFVSLHYYLLFQRHAPVIEAAAAKNLGIFIISPVDKGGLLHQPSAQLIEDCQPFSPLALNYRFLLSDRRITTLSFGAAKAEELAVLQDFVDADQPLSLEEAEAIARLEQVRQQRLGRDYCQQCYACLPCPEAINIPEVLRLRNLAIAHDMQAYGRYRYRMFENAGHWFPGQRGSRCTDCGDCLPRCPHHLPIADLVRDADQRLAGAPRRRLWGD | not soluble
MDLLGKLFSRALKLSTLPTKKKRDAFSQQRKVLKKLLKKSANTQFGLRFNFYEILVQFSSGNKKVFYDFYKRRVPVYTYNTLYNEWWYRLKEGEADVTWPGKVQYFALSSGTSDASTKYIPITEQFLKANKKIGIRQLLSLAHYKLPKDLLGKGILMLGGSTHLHKTETYYEGDLSGIQASKIPFWFQYFYKPGSRIARNRDWESKLNDIVESAPDWDIGFIVGVPAWLQILLERIIARYQLKTIHDIWPNLTVFVHGGVAFDPYRKGFEKLLAKPIIYIETYLASEGFIAYQAGPGRKGMKLILDNGIFFEFVPFNEQNINASGDIVVNPKTLMIHEVEEGVDYVLLVSTCAGTWRYMIGDVIRFVDKAQAEIIITGRTKHFISLCGEHLSVDNMNQAIKLVAEELNIIIKEFTVSGIAHDTLFAHQWYIGTDHVIDPVVVSDLLDEKLKLLNDDYRVERTSALKEIFVTILPSQSFYDWMRYRGKEGGQNKFPRVLNKKLHEDWKAFLNQ | not soluble
MSLIKVLIVEDDPMVAMLNAHYLEQVGGFELVQAVNSVKSAIEVLEESRIDLVLLDIFMPEETGFELLMYIRNQEKEIDIMMISAVHDMGSIKKALQYGVVDYLIKPFTFERFKEALTIYREKLTFMKEQQKISQSELDSLILQKEKREPTVTKELPKGLTKQTLQLIWQKIELLNGRAFTTDEMSQLVGISRVSIRKYVMFLTDIGVLENEMMYQHVGRPVSKLRCVDQKKIEFYVEGHHHHHH | soluble

From the DeepSol protein solubility set
